Experimental data published in paper PMC8170886.

Target: bacteriophage P22 coat protein (bacteriophage P22) (UniProt P26747)
Test: densitometry of SDS-PAGE of the purified particles; purified ASNase-P22 nanoreactors from different chromatograms, bands quantified with ImageJ; numbers per capsid calculated on 420 CP

Question: With “ASNase-SP chimeric protein (E. coli asparaginase II fused to the bacteriophage P22 scaffold protein) (from UniProt P00805 23-348) (enzyme)” as the substance, how does the ASNase-SP tetramers per capsid of 420 CP (tetramers per capsid) read?
Answer: 110

Question: And the monomers per capsid (monomers per capsid)?
Answer: 448

Question: What about the percent ASNase-SP in the nanoreactor's protein (densitometry) of the same substance?
Answer: 41.6%

Question: What about the percent CP in the nanoreactor's protein (densitometry) of the same substance?
Answer: 58.4%
